Assay results published in paper PMC2475692.

Experiments:
[1] = target: YFP-EF-preIQ-IQ (CaV1.3 α1 C-terminal fragment, amino acids 1453–1623) (human) (UniProt Q01668); experiment: FRET or BRET
[2] = target: YFP-EF-preIQ-IQ-PCRD (CaV1.3 α1 C-terminal fragment, amino acids 1453–1664) (human); experiment: FRET or BRET
Sequence of YFP-EF-preIQ-IQ-PCRD (CaV1.3 α1 C-terminal fragment, amino acids 1453–1664) (human) (Q01668 1453-1664): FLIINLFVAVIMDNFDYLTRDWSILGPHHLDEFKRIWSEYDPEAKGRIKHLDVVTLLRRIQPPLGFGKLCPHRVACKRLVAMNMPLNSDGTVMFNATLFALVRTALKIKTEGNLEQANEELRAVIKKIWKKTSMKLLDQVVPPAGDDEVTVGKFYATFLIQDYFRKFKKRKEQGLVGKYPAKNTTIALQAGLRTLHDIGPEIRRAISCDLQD

Sequence of YFP-EF-preIQ-IQ (CaV1.3 α1 C-terminal fragment, amino acids 1453–1623) (human) (Q01668 1468-1638): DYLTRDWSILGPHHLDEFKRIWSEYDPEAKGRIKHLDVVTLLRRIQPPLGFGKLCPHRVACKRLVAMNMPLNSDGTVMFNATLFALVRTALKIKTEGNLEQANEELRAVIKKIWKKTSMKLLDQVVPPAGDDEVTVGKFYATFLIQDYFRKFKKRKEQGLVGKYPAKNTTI

- N FRET [1]: 0.185
- N FRET [2]: 0.235
Substance: CFP-labeled calmodulin (from UniProt P0DP23 1-149) (natural protein)
